Results taken from publication PMC9482650, “Quantitative fragmentomics allow affinity mapping of interactomes” (Nature Communications, 2022).

T1: APBA1_1, Q02410
T1 sequence (Q02410 651-752, limits assumed, looked up): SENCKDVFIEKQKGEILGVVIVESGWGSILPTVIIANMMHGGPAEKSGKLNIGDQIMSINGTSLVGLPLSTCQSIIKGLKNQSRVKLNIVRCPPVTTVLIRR

T2: ARHGEF11, O15085
T2 sequence (O15085 42-136, limits assumed, looked up): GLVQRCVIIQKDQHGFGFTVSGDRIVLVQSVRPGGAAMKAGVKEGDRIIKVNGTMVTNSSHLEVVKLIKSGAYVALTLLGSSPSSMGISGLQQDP

T3: GRIP1_2, Q9Y3R0
T3 sequence (Q9Y3R0 145-248, limits assumed, looked up): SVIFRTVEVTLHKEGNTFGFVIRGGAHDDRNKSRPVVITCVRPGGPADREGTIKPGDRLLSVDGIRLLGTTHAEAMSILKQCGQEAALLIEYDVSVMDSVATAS

T4: MPP7, Q5T2T1
T4 sequence (Q5T2T1 134-230, limits assumed, looked up): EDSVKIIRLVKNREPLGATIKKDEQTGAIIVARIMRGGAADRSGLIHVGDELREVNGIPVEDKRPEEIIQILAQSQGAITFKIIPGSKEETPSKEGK

T5: NHERF3_3, Q5T2W1
T5 sequence (Q5T2W1 238-333, limits assumed, looked up): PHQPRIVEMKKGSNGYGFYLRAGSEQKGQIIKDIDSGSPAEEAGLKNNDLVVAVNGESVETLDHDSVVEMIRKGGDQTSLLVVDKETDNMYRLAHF

T6: PDZRN3_1, Q9UPQ7
T6 sequence (Q9UPQ7 244-349, limits assumed, looked up): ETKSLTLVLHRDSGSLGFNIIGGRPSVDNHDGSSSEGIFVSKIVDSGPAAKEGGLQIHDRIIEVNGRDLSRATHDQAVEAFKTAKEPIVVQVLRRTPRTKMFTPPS

T7: RADIL, Q96JH8
T7 sequence (Q96JH8 971-1071, limits assumed, looked up): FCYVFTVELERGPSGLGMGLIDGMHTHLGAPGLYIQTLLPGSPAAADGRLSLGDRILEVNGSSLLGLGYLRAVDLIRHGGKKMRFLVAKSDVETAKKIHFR

T8: RAPGEF6, Q8TEU7
T8 sequence (Q8TEU7 525-625, limits assumed, looked up): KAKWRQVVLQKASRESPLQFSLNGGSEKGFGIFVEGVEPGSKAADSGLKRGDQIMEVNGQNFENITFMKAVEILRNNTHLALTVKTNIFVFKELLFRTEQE

T9: RHPN1, Q8TCX5
T9 sequence (Q8TCX5 508-602, limits assumed, looked up): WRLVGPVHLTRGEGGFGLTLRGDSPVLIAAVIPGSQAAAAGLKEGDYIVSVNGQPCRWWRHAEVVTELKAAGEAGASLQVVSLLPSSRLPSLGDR

T10: SNTA1, Q13424
T10 sequence (Q13424 82-180, limits assumed, looked up): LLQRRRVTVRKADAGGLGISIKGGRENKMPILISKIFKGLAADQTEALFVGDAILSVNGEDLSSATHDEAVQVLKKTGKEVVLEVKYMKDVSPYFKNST

T11: SNTG2, Q9NY99
T11 sequence (Q9NY99 68-166, limits assumed, looked up): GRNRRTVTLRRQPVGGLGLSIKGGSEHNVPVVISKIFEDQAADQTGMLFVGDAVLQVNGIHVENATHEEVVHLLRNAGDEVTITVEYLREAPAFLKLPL


Experiments:
Test in all cases: holdup assay
Set-up in all cases: key: below the threshold = too weak to quantify, mostly under pKd 3.1 to 4
Settings in all cases: plain residues with an end cap or a label only (N-terminal biotin on a linker: ttds)
APBA1_1, Q02410 = biological target: T1, APBA1_1, Q02410
ARHGEF11, O15085 = biological target: T2, ARHGEF11, O15085
ARHGEF12, Q9NZN5-2 = biological target: ARHGEF12, Q9NZN5-2
Sequence of ARHGEF12, Q9NZN5-2 (Q9NZN5 other isoform, or with tags, fused parts or gaps): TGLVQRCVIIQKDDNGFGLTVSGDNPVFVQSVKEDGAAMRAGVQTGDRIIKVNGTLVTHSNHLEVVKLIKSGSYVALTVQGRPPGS

DLG5_1, Q8TDM6 = biological target: DLG5_1, Q8TDM6
Sequence of DLG5_1, Q8TDM6 (Q8TDM6 617-713): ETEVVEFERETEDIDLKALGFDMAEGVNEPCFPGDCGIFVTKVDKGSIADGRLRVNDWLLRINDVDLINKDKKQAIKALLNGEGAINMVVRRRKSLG

FRMPD3, Q5JV73 = biological target: FRMPD3, Q5JV73
Sequence of FRMPD3, Q5JV73 (Q5JV73 12-100): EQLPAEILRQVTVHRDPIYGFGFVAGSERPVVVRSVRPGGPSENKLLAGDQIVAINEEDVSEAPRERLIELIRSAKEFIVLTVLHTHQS

GRID2IP_2, A4D2P6 = biological target: GRID2IP_2, A4D2P6
Sequence of GRID2IP_2, A4D2P6 (A4D2P6 272-370): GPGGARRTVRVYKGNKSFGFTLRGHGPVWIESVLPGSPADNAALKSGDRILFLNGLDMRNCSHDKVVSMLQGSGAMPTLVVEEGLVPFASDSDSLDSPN

GRIP1_2, Q9Y3R0 = biological target: T3, GRIP1_2, Q9Y3R0
HTRA1, Q92743 = biological target: HTRA1, Q92743
Sequence of HTRA1, Q92743 (Q92743 360-477): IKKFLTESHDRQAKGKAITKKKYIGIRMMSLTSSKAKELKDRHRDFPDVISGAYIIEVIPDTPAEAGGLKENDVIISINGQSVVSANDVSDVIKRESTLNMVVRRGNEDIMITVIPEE

IL16_1, Q14005 = biological target: IL16_1, Q14005
Sequence of IL16_1, Q14005 (Q14005 210-306): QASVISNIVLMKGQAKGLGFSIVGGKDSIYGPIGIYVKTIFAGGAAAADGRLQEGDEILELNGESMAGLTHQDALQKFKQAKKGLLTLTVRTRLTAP

IL16_3, Q14005 = biological target: IL16_3, Q14005
Sequence of IL16_3, Q14005 (Q14005 1107-1207): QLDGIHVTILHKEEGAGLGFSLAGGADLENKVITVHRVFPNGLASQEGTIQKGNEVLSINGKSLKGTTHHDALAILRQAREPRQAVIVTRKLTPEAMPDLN

Inadl_3, Q8NI35 = biological target: Inadl_3, Q8NI35
Sequence of Inadl_3, Q8NI35 (Q8NI35 359-469): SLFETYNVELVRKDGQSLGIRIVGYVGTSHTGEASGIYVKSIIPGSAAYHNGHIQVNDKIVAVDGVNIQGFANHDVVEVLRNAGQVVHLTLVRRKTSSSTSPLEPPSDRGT

Inadl_5, Q8NI35 = biological target: Inadl_5, Q8NI35
Sequence of Inadl_5, Q8NI35 (Q8NI35 673-780): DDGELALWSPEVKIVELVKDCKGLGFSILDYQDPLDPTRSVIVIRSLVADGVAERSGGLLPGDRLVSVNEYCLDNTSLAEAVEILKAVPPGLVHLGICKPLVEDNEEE

LNX1_2, Q8TBB1 = biological target: LNX1_2, Q8TBB1
Sequence of LNX1_2, Q8TBB1 (Q8TBB1 371-470): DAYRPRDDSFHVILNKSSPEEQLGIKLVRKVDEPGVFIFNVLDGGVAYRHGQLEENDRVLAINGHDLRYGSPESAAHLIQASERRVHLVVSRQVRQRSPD

MAGI2_2, Q86UL8 = biological target: MAGI2_2, Q86UL8
Sequence of MAGI2_2, Q86UL8 (Q86UL8 410-522): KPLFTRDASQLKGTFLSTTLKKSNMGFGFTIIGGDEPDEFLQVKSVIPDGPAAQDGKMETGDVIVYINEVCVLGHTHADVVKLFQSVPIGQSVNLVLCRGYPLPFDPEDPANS

MAGI3_2, Q5TCQ9 = biological target: MAGI3_2, Q5TCQ9
Sequence of MAGI3_2, Q5TCQ9 (Q5TCQ9 398-503): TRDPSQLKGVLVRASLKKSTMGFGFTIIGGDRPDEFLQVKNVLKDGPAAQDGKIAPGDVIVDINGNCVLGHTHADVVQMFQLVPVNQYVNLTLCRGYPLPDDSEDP

MAST1, Q9Y2H9 = biological target: MAST1, Q9Y2H9
Sequence of MAST1, Q9Y2H9 (Q9Y2H9 962-1065): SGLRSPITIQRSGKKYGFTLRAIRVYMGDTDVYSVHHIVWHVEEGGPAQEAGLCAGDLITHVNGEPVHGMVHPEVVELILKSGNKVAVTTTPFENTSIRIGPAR

MPP7, Q5T2T1 = biological target: T4, MPP7, Q5T2T1
NHERF3_3, Q5T2W1 = biological target: T5, NHERF3_3, Q5T2W1
PDLIM1, O00151 = biological target: PDLIM1, O00151
Sequence of PDLIM1, O00151 (O00151 1-87): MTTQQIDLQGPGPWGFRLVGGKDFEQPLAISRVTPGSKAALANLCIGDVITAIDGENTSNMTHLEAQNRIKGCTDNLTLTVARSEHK

PDZRN3_1, Q9UPQ7 = biological target: T6, PDZRN3_1, Q9UPQ7
PTPN3, P26045 = biological target: PTPN3, P26045
Sequence of PTPN3, P26045 (P26045 505-587): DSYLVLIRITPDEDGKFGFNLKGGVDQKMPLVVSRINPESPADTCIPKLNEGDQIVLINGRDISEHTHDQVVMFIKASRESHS

RADIL, Q96JH8 = biological target: T7, RADIL, Q96JH8
RAPGEF6, Q8TEU7 = biological target: T8, RAPGEF6, Q8TEU7
RHPN1, Q8TCX5 = biological target: T9, RHPN1, Q8TCX5
SNTA1, Q13424 = biological target: T10, SNTA1, Q13424
SNTG2, Q9NY99 = biological target: T11, SNTG2, Q9NY99
TJP1_3, Q07157 = biological target: TJP1_3, Q07157
Sequence of TJP1_3, Q07157 (Q07157 416-512): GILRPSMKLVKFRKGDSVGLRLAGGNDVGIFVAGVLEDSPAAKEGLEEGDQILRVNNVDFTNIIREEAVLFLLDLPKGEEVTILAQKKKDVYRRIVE

| Binder | pKd (APBA1_1, Q02410) | pKd (ARHGEF11, O15085) | pKd (ARHGEF12, Q9NZN5-2) | pKd (DLG5_1, Q8TDM6) | pKd (FRMPD3, Q5JV73) | pKd (GRID2IP_2, A4D2P6) | pKd (GRIP1_2, Q9Y3R0) | pKd (HTRA1, Q92743) | pKd (IL16_1, Q14005) | pKd (IL16_3, Q14005) | pKd (Inadl_3, Q8NI35) | pKd (Inadl_5, Q8NI35) | pKd (LNX1_2, Q8TBB1) | pKd (MAGI2_2, Q86UL8) | pKd (MAGI3_2, Q5TCQ9) | pKd (MAST1, Q9Y2H9) | pKd (MPP7, Q5T2T1) | pKd (NHERF3_3, Q5T2W1) | pKd (PDLIM1, O00151) | pKd (PDZRN3_1, Q9UPQ7) | other results |
| --- | --- | --- | --- | --- | --- | --- | --- | --- | --- | --- | --- | --- | --- | --- | --- | --- | --- | --- | --- | --- | --- |
| SKPTRRETEV [HPV35-E6, P27228] | below the threshold | 4.11 | 4.06 | below the threshold | below the threshold | below the threshold | below the threshold | below the threshold | below the threshold | below the threshold | below the threshold | below the threshold | below the threshold | 4.93 | 5.39 | below the threshold | below the threshold | below the threshold | below the threshold | 4.89 | pKd (PTPN3, P26045): 4.93; pKd (RADIL, Q96JH8): below the threshold; pKd (RAPGEF6, Q8TEU7): below the threshold; pKd (RHPN1, Q8TCX5): below the threshold; pKd (SNTA1, Q13424): 4.85; pKd (SNTG2, Q9NY99): 3.95; pKd (TJP1_3, Q07157): below the threshold |
| QRQARSETLV [HPV59-E6, Q81964] | below the threshold | below the threshold | below the threshold | below the threshold | below the threshold | 3.64 | below the threshold | 4.14 | below the threshold | below the threshold | below the threshold | 3.9 | 4.25 | 6.07 | 6.07 | 4.62 | below the threshold | below the threshold | below the threshold | 4.22 | pKd (PTPN3, P26045): 4.4; pKd (RADIL, Q96JH8): 4.47; pKd (RAPGEF6, Q8TEU7): below the threshold; pKd (RHPN1, Q8TCX5): 3.94; pKd (SNTA1, Q13424): 3.99; pKd (SNTG2, Q9NY99): 4.05; pKd (TJP1_3, Q07157): below the threshold |
| PRVKPQRSKV [PPP1R13L, Q8WUF5] | below the threshold | 3.64 | 3.54 | below the threshold | below the threshold | 4.51 | below the threshold | below the threshold | below the threshold | below the threshold | below the threshold | below the threshold | below the threshold | 3.79 | 4.07 | 3.71 | below the threshold | below the threshold | below the threshold | below the threshold | pKd (PTPN3, P26045): below the threshold; pKd (RADIL, Q96JH8): below the threshold; pKd (RAPGEF6, Q8TEU7): below the threshold; pKd (RHPN1, Q8TCX5): below the threshold; pKd (SNTA1, Q13424): below the threshold; pKd (SNTG2, Q9NY99): below the threshold; pKd (TJP1_3, Q07157): below the threshold |
